# Measurements published in PMC10624902, “Structure of a membrane-bound menaquinol:organohalide oxidoreductase” (Nature Communications, 2023).
# T1: PceA2B2 complex (menaquinol:organohalide oxidoreductase, MOOR; DhPceA / DhPceB) (Desulfitobacterium hafniense, UniProt Q8GJ30+Q8GJ31)
# T1 construct: gene pceA; native complex from D. hafniense membranes, DDM-solubilised, SEC into LMNG; no tag; PceA C-terminal domain S486-Q551 present; PceA exported via Tat
# T1 sequence (Q8GJ31 40-551): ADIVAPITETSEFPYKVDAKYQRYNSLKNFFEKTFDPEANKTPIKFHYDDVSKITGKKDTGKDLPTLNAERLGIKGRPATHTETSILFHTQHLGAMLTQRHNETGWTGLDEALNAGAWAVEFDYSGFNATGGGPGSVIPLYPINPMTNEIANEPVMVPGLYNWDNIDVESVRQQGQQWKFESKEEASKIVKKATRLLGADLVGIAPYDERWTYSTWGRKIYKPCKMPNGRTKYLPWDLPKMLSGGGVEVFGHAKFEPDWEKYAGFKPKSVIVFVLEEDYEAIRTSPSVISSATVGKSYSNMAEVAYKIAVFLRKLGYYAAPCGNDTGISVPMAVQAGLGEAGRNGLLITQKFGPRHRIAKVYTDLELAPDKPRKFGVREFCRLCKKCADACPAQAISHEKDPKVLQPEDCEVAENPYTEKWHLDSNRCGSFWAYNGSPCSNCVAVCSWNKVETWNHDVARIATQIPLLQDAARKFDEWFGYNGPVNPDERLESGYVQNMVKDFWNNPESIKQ
# T1 sequence (Q8GJ30 1-105): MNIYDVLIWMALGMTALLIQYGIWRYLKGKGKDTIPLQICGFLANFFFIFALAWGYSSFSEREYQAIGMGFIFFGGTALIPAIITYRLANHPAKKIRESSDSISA
# Key:
# [1] = molecular target: T1, PceA2B2 complex (menaquinol:organohalide oxidoreductase, MOOR; DhPceA / DhPceB); experiment: cryo-EM structure, […] A; format: binding; conditions: PceA active site / channel, 5.3 A from cobalt; cells grown with PCE
# [2] = molecular target: the molecule itself; experiment: native gel or EMSA; Clear-Native PAGE (5-15% gradient, Bis-Tris) of DDM-solubilised membrane extract and soluble fraction, anaerobic; Coomassie and in-gel PCE dehalogenase activity staining; the ~180 kDa band cut out, run on SDS-PAGE as second dimension and analysed by LC-MS/MS
# [3] = molecular target: the molecule itself; experiment: cryo-EM structure; native PceA2B2 complex purified from the membrane extract by SEC in 25 mM HEPES-NaOH pH 7.5, 150 mM NaCl, 0.005% LMNG; single-particle analysis, C2 symmetry, 2.83 Å
molecule,measurement,setting,value
"Cl/C=C\Cl [cis-1,2-dichloroethene]","cryo-EM structure, 2.83 A",[1],"density for a dichloroethene (DCE) molecule, the final product of PCE dechlorination"
"PceA, catalytic subunit of the tetrachloroethene (PCE) reductive dehalogenase from Desulfitobacterium hafniense strain TCE1 (enzyme, UniProt Q8GJ31 40-551, looked up, PceA, catalytic subunit of the PCE reductive dehalogenase, Desulfitobacterium hafniense strain TCE1 (DSM 12704), locus tag DeshaDRAFT_2412; C-terminal domain printed as S486-Q551; Native protein with a cobalamin and two [4Fe-4S] clusters; a menaquinone lies at the interface with PceB; the modelled residues are in PDB 8Q4H; also called DhPceA; RdhA; source: endogenous, D. hafniense strain TCE1: …) ADIVAPITETSEFPYKVDAKYQRYNSLKNFFEKTFDPEANKTPIKFHYDDVSKITGKKDTGKDLPTLNAERLGIKGRPATHTETSILFHTQHLGAMLTQRHNETGWTGLDEALNAGAWAVEFDYSGFNATGGGPGSVIPLYPINPMTNEIANEPVMVPGLYNWDNIDVESVRQQGQQWKFESKEEASKIVKKATRLLGADLVGIAPYDERWTYSTWGRKIYKPCKMPNGRTKYLPWDLPKMLSGGGVEVFGHAKFEPDWEKYAGFKPKSVIVFVLEEDYEAIRTSPSVISSATVGKSYSNMAEVAYKIAVFLRKLGYYAAPCGNDTGISVPMAVQAGLGEAGRNGLLITQKFGPRHRIAKVYTDLELAPDKPRKFGVREFCRLCKKCADACPAQAISHEKDPKVLQPEDCEVAENPYTEKWHLDSNRCGSFWAYNGSPCSNCVAVCSWNKVETWNHDVARIATQIPLLQDAARKFDEWFGYNGPVNPDERLESGYVQNMVKDFWNNPESIKQ",stoichiometry N,[2],2
"PceB, integral membrane anchor subunit of the PCE reductive dehalogenase from Desulfitobacterium hafniense strain TCE1 (natural protein, UniProt Q8GJ30 1-105, looked up, PceB, small integral membrane subunit with three transmembrane helices, encoded in the pceABCT operon of Desulfitobacterium hafniense strain TCE1; also called DhPceB; RdhB; source: endogenous, D. hafniense strain TCE1: DDM-solubilised membrane extract; purified as PceA2B2 complex by size-exclusion chromatography (Superose 6 Increase) for cryo-EM) MNIYDVLIWMALGMTALLIQYGIWRYLKGKGKDTIPLQICGFLANFFFIFALAWGYSSFSEREYQAIGMGFIFFGGTALIPAIITYRLANHPAKKIRESSDSISA",binding result,[3],binds
